What follows are binders tested against T1, BAFF (Sino biological, 10056-HNCH) (UniProt Q9Y275 134-285, biotinylated in the blocking ELISA (site not stated)) (assay: ELISA, BAFF coated at 1 ug/mL, anti-human IgG-HRP).
T1 construct: also called BLyS
Method: The BAFF binding activity of the TACI-Fc fusion proteins was assessed as follows: BAFF (Sino biological, 10056-HNCH) protein was diluted with a pH 7.4 PBS (BasalMedia, B320) buffer to 1 μg/mL, and the resulting dilution was added to a 96-well microplate (Corning, 3590) at 100 μL/well. The plate was incubated overnight at 4° C. After the liquid was discarded, 5% skim milk (BD, 232100), diluted with PBS, was added at 300 μL/well for blocking, and the plate was incubated at 37° C. for 2 h. After the blocking, the blocking solution was discarded, and the plate was washed 3 times with a PBST buffer (pH 7.4 PBS containing 0.10% tween-20). Serially diluted test antibody or fusion protein solutions were added at 100 μL/well, and the plate was incubated at 37° C. for 1 h. […] The plate was incubated at 37° C. for 1 h. After the plate was washed 3 times with PBST, the chromogenic substrate TMB (KPL, 5120-0077) was added at 100 μL/well. The plate was incubated at room temperature for 10-15 min, and 1 M H₂SO₄ was added at 50 μL/well to stop the reaction. The absorbance at 450 nm was measured using a microplate reader. Curves for the binding of the antibodies to the antigen were fitted using software, and EC₅₀ values were calculated.
The BAFF binding activity of the constructed TACI-Fc fusion proteins was assessed (see Example 2 for the experimental method), and the results are shown in Table 3: […]

Binder | EC50 [nM]
TACI-9-1-Fc (Fc fusion) STSCRKEQGKFYDHLLRDCISCASICGQHPKQCAYFCENKLDKTHTCPPCPAPEAEGAPSVFLFPPKPKDTLMISRTPEVTCVVVDVSHEDPEVKFNWYVDGVEVHNAKTKPREEQYNSTYRVVSVLTVLHQDWLNGKEYKCKVSNKALPSSIEKTISKAKGQPREPQVYTLPPSRDELTKNQVSLTCLVKGFYPSDIAVEWESNGQPENNYKTTPPVLDSDGSFFLYSKLTVDKSRWQQGNVFSCSVMHEALHNHYTQKSLSLSPGK | 0.382
TACI-9-14-Fc (Fc fusion) STSCRKEQGKFYDHLLRDCISCASICGQHPKQCAAYCENKLDKTHTCPPCPAPEAEGAPSVFLFPPKPKDTLMISRTPEVTCVVVDVSHEDPEVKFNWYVDGVEVHNAKTKPREEQYNSTYRVVSVLTVLHQDWLNGKEYKCKVSNKALPSSIEKTISKAKGQPREPQVYTLPPSRDELTKNQVSLTCLVKGFYPSDIAVEWESNGQPENNYKTTPPVLDSDGSFFLYSKLTVDKSRWQQGNVFSCSVMHEALHNHYTQKSLSLSPGK | 0.223
TACI-9-6-Fc (Fc fusion) SRSCRKEQGKFYDHLLRTCISCASICGQHPKQCAYFCENKLDKTHTCPPCPAPEAEGAPSVFLFPPKPKDTLMISRTPEVTCVVVDVSHEDPEVKFNWYVDGVEVHNAKTKPREEQYNSTYRVVSVLTVLHQDWLNGKEYKCKVSNKALPSSIEKTISKAKGQPREPQVYTLPPSRDELTKNQVSLTCLVKGFYPSDIAVEWESNGQPENNYKTTPPVLDSDGSFFLYSKLTVDKSRWQQGNVFSCSVMHEALHNHYTQKSLSLSPGK | 0.367
TACI-9-9-Fc (Fc fusion) SRSCRKEQGKFYDHLLRTCISCASICGQHPKQCARFCENKLDKTHTCPPCPAPEAEGAPSVFLFPPKPKDTLMISRTPEVTCVVVDVSHEDPEVKFNWYVDGVEVHNAKTKPREEQYNSTYRVVSVLTVLHQDWLNGKEYKCKVSNKALPSSIEKTISKAKGQPREPQVYTLPPSRDELTKNQVSLTCLVKGFYPSDIAVEWESNGQPENNYKTTPPVLDSDGSFFLYSKLTVDKSRWQQGNVFSCSVMHEALHNHYTQKSLSLSPGK | 0.937
TACI-9-7-Fc (Fc fusion) SRSCRKEQGKFYDHLLRACISCASICGQHPKQCAYFCENKLDKTHTCPPCPAPEAEGAPSVFLFPPKPKDTLMISRTPEVTCVVVDVSHEDPEVKFNWYVDGVEVHNAKTKPREEQYNSTYRVVSVLTVLHQDWLNGKEYKCKVSNKALPSSIEKTISKAKGQPREPQVYTLPPSRDELTKNQVSLTCLVKGFYPSDIAVEWESNGQPENNYKTTPPVLDSDGSFFLYSKLTVDKSRWQQGNVFSCSVMHEALHNHYTQKSLSLSPGK | 0.727
TACI-9-13-Fc (Fc fusion) STSCRKEQGKFYDHLLRDCISCASICGQHPKQCAYYCENKLDKTHTCPPCPAPEAEGAPSVFLFPPKPKDTLMISRTPEVTCVVVDVSHEDPEVKFNWYVDGVEVHNAKTKPREEQYNSTYRVVSVLTVLHQDWLNGKEYKCKVSNKALPSSIEKTISKAKGQPREPQVYTLPPSRDELTKNQVSLTCLVKGFYPSDIAVEWESNGQPENNYKTTPPVLDSDGSFFLYSKLTVDKSRWQQGNVFSCSVMHEALHNHYTQKSLSLSPGK | 0.433
TACI-9-2-Fc (Fc fusion) SLSCSKEQGKFYDHLLRDCISCASICGQHPKQCAYFCENKLDKTHTCPPCPAPEAEGAPSVFLFPPKPKDTLMISRTPEVTCVVVDVSHEDPEVKFNWYVDGVEVHNAKTKPREEQYNSTYRVVSVLTVLHQDWLNGKEYKCKVSNKALPSSIEKTISKAKGQPREPQVYTLPPSRDELTKNQVSLTCLVKGFYPSDIAVEWESNGQPENNYKTTPPVLDSDGSFFLYSKLTVDKSRWQQGNVFSCSVMHEALHNHYTQKSLSLSPGK | 0.279
TACI-9-4-Fc (Fc fusion) SLSCRQEQGKFYDHLLRDCISCASICGQHPKQCAYFCENKLDKTHTCPPCPAPEAEGAPSVFLFPPKPKDTLMISRTPEVTCVVVDVSHEDPEVKFNWYVDGVEVHNAKTKPREEQYNSTYRVVSVLTVLHQDWLNGKEYKCKVSNKALPSSIEKTISKAKGQPREPQVYTLPPSRDELTKNQVSLTCLVKGFYPSDIAVEWESNGQPENNYKTTPPVLDSDGSFFLYSKLTVDKSRWQQGNVFSCSVMHEALHNHYTQKSLSLSPGK | 0.469
TACI-9-3-Fc (Fc fusion) SLSCREEQGKFYDHLLRDCISCASICGQHPKQCAYFCENKLDKTHTCPPCPAPEAEGAPSVFLFPPKPKDTLMISRTPEVTCVVVDVSHEDPEVKFNWYVDGVEVHNAKTKPREEQYNSTYRVVSVLTVLHQDWLNGKEYKCKVSNKALPSSIEKTISKAKGQPREPQVYTLPPSRDELTKNQVSLTCLVKGFYPSDIAVEWESNGQPENNYKTTPPVLDSDGSFFLYSKLTVDKSRWQQGNVFSCSVMHEALHNHYTQKSLSLSPGK | 0.265

The next binders have a lower EC50 than those just listed; values first:

EC50 [nM] | Binder
0.122 | TACI-9-12-Fc (Fc fusion) STSCRKEQGKFYDHLLRDCISCASICGQHPKQCAAFCENKLDKTHTCPPCPAPEAEGAPSVFLFPPKPKDTLMISRTPEVTCVVVDVSHEDPEVKFNWYVDGVEVHNAKTKPREEQYNSTYRVVSVLTVLHQDWLNGKEYKCKVSNKALPSSIEKTISKAKGQPREPQVYTLPPSRDELTKNQVSLTCLVKGFYPSDIAVEWESNGQPENNYKTTPPVLDSDGSFFLYSKLTVDKSRWQQGNVFSCSVMHEALHNHYTQKSLSLSPGK
0.195 | TACI-9-11-Fc (Fc fusion) SLSCSEEQGEFYDHLLRDCISCASICGQHPKQCAYFCENKLDKTHTCPPCPAPEAEGAPSVFLFPPKPKDTLMISRTPEVTCVVVDVSHEDPEVKFNWYVDGVEVHNAKTKPREEQYNSTYRVVSVLTVLHQDWLNGKEYKCKVSNKALPSSIEKTISKAKGQPREPQVYTLPPSRDELTKNQVSLTCLVKGFYPSDIAVEWESNGQPENNYKTTPPVLDSDGSFFLYSKLTVDKSRWQQGNVFSCSVMHEALHNHYTQKSLSLSPGK
0.12 | TACI-9-10-Fc (Fc fusion) SLSCREEQGEFYDHLLRDCISCASICGQHPKQCAYFCENKLDKTHTCPPCPAPEAEGAPSVFLFPPKPKDTLMISRTPEVTCVVVDVSHEDPEVKFNWYVDGVEVHNAKTKPREEQYNSTYRVVSVLTVLHQDWLNGKEYKCKVSNKALPSSIEKTISKAKGQPREPQVYTLPPSRDELTKNQVSLTCLVKGFYPSDIAVEWESNGQPENNYKTTPPVLDSDGSFFLYSKLTVDKSRWQQGNVFSCSVMHEALHNHYTQKSLSLSPGK
0.2 | TACI-9-8-Fc (Fc fusion) SLSCRKEQGKFYDHLLRDCISCASICGQHPKQCAAFCENKLDKTHTCPPCPAPEAEGAPSVFLFPPKPKDTLMISRTPEVTCVVVDVSHEDPEVKFNWYVDGVEVHNAKTKPREEQYNSTYRVVSVLTVLHQDWLNGKEYKCKVSNKALPSSIEKTISKAKGQPREPQVYTLPPSRDELTKNQVSLTCLVKGFYPSDIAVEWESNGQPENNYKTTPPVLDSDGSFFLYSKLTVDKSRWQQGNVFSCSVMHEALHNHYTQKSLSLSPGK
0.146 | TACI-9-5-Fc (Fc fusion) SLSCRKEQGEFYDHLLRDCISCASICGQHPKQCAYFCENKLDKTHTCPPCPAPEAEGAPSVFLFPPKPKDTLMISRTPEVTCVVVDVSHEDPEVKFNWYVDGVEVHNAKTKPREEQYNSTYRVVSVLTVLHQDWLNGKEYKCKVSNKALPSSIEKTISKAKGQPREPQVYTLPPSRDELTKNQVSLTCLVKGFYPSDIAVEWESNGQPENNYKTTPPVLDSDGSFFLYSKLTVDKSRWQQGNVFSCSVMHEALHNHYTQKSLSLSPGK
0.0869 | TACI-9-15-Fc (Fc fusion) STSCREEQGEFYDHLLRDCISCASICGQHPKQCAAFCENKLDKTHTCPPCPAPEAEGAPSVFLFPPKPKDTLMISRTPEVTCVVVDVSHEDPEVKFNWYVDGVEVHNAKTKPREEQYNSTYRVVSVLTVLHQDWLNGKEYKCKVSNKALPSSIEKTISKAKGQPREPQVYTLPPSRDELTKNQVSLTCLVKGFYPSDIAVEWESNGQPENNYKTTPPVLDSDGSFFLYSKLTVDKSRWQQGNVFSCSVMHEALHNHYTQKSLSLSPGK

Reference: patent US20260056186A1 (JIANGSU HENGRUI PHARMACEUTICALS, published 2026)
